The text below walks through data of patent publication US20250027068.

To fix the notation:
B1: PRT-476 (protein)
chain: MVTSVWTKGVTPPTNFTYGEDVLHAPYVANQGWYDITKAFDGGDDLLCGAATAGNMLHWWFDQNKEQIENYLKKHPEKQKINFNGEQMFDVKEAIDTKDSQTNSELFNYFKEKAFPYLSTKHLGVFPDHVIDMFINGYRLSLTNHGPTPVKRGSKDPRGGIFDAVFTRGDQSKLLTNRHDLKNKTLKEISDLIKQELTEGKALGISHTYANVRINHVINLWGADFDAEGNLEAIYVTDSDSNASIGMKKYFVGVNSNGKVAISAKEIEEDNIGAQVLGLFTLSTGQDIWNQTNLEHHHHHH
B2: PRT-494 (protein)
chain: MVTSVWTKGVTPPTDFIKGEDVFHAPYKAGQGWYDITKTFNGKDDLLCGAATAGNMLHWWFDQNKEYIEAYLKKHPEKQKIMFGDQELLDVRKAINTKGSQKNSELFNYFRDKAFPNLSARRLGVMPDLVLDMFINGYYLNVTKTQTTDVNRTYQEKDKRGGIFDAVFTRGDQSKLLTSRHDFKEKGLKEISDLIKQELTEGKALGLSHTYANVRINHVINLWGADFDSDGNLKAIYVTDSDSNASIGMKKYFVGVNSAGKVAISAKEIKEDNIGAQVLGLFTLSTGQDIWNQTNLEHHHHHH
B3: PRT-496 (protein)
chain: MVTSVWTKGVTPPTDFIKGEDVFHAPYKAGQGWYDITKTFNGKDDLLCGAATAGNMLHWWFDQNKEYIEAYLKKHPEKQKIMFGDQELLDVRKAINTKGSQKNSELFNYFRDKAFPNLSARRLGVMPDLVLDMFINGYYLNVTKTQTTDVNRTYQEKDKRGGIFDAVFTRGDQSKLLTSRHDLKNKGLKEISDLIKQELTEGKALGLSHTYANVRINHVINLWGADFDSDGNLKAIYVTDSDSNASIGMKKYFVGVNSAGKVAISAKEIKEDNIGAQVLGLFTLSTGQDIWNQTNLEHHHHHH
B4: PRT-503 (protein)
chain: MITSVWTKGVTPPTDFIKGEDVFHAPYKAGQGWYDITKAFDGGDDLLCGAATAGNMLHWWFDQNKEYIEAYLKKHPEKQKIMFGDQELLDVRKAINTKGSQKNSELFNYFRDKAFPNLSARRLGVMPDLVLDMFINGYYLNVTKTQTTDVNRQEQEKDKRGGIFDAVFGRGDQTKLLTSRHDLKNKGLNEISQLIKQELTEGKALGLSHTYANVRINHVINLWGADFDADGNLEAIYVTDSDSNASIGMKKYFVGVNSAGKVAISAKEIKEDNIGAQVLGLFTLSTGQKIWNKTNLEHHHHHH
B5: PRT-454 (protein)
chain: MITSVWTKGVTPPTDFIKGEDVFHAPYKAGQGWYDITKAFDGGDDLLCGAATAGNMLHWWFDQNKDQIEAYLKEHPEKQKINFNGEQMFDVKEAIDTKDDQTNSELFNYFKEKAFPYLSTKHLGVFPDHVLDMFINGYRLSLTNHGPTPVKRQEKDPRGGIFDAVFGRGDQTKLLTSRHDFKEKTLNEISQLIKQELTEGKALALSHTYANVRINHVINLWGADFDAEGNLEAIYVTDSDSNASIGMKKYFVGVNSAGKVAISAKEIEDDNIGAQVLGLFTLSTGQKIWNKTNLEHHHHHH
B6: PRT-466 (protein)
chain: MITSVWTKGVTPPTDFIKGEDVFHAPYKAGQGWYDITKAFDGGDDLLCGAATAGNMLHWWFDQNKDQIERYLKEHPEKQKINFNGEQMFDVKEAIDTKDSQTNSELFNYFKEKAFPYLSTKHLGVFPDHVLDMFINGYRLSLTNHGPTPVKRQEKDPRGGIFDAVFGRGDQTKLLTSRHDFKEKTLNEISQLIKQELTEGKALGLSHTYANVRINHVINLWGADFDAEGNLEAIYVTDSDSNASIGMKKYFVGVNSAGKVAISAKEIKEDNIGAQVLGLFTLSTGQKIWNKTNLEHHHHHH
B7: PRT-448 (protein)
chain: MVTSVWTKGVTPPTDFIKGEDVFHAPYKAGQGWYDITKTFNGKDDLLCGAATAGNMLHWWFDQNKDQIEAYLKEHPEKQKINFNGEQMFDVKEAIDTKDDQTNSKLFEYFKEKAFPYLSTKHLGVFPDHVLDMFINGYRLSLTNHGPTPVKEGSKDPRGGIFDAVFTRGDQSKLLTSRHDLKNKTLKEISDLIKQELTEGKALALSHTYANVRINHVINLWGADFDSNGNLEAIYVTDSDSNASIGMKKYFVGVNSAGKVAISAKEIEDDNIGAQVLGLFTLSTGQDIWNQTNLEHHHHHH
B8: PRT-460 (protein)
chain: MVTSVWTKGVTPPTDFIKGEDVFHAPYKAGQGWYDITKTFNGKDDLLCGAATAGNMLHWWFDQNKDQIERYLKEHPEKQKINFNGEQMFDVKEAIDTKDSQTDSKLFEYFKEKAFPYLSTKHLGVFPDHVLDMFINGYRLSLTNHGPTPVKEGSKDPRGGIFDAVFTRGDQSKLLTSRHDLKNKTLKEISDLIKQELTEGKALGLSHTYANVRINHVINLWGADFDSEGNLKAIYVTDSDSNASIGMKKYFVGVNSAGKVAISAKEIKEDNIGAQVLGLFTLSTGQDIWNQTNLEHHHHHH
B9: PRT-670 (protein)
chain: MQITSVWTKGVTPLTPEQFRNNNEDVFHAPYLPNQGWYDITKAFNGKDNLLCGAATAGNMLHWWFDQNKEEIEAYLKKYPEKQKIIFNNQELFDLRKAINTKDSQTNSALFNYFRDKAFPNLSARQLGVMPDHVLDMFINGYYLNVGKTQSTDVNRPYQDKDKRGGIFDHVFNRGDQTKLLTARHDLKNKTLNDISTLIKQELSSGKALALSHTYANVGISHVINLWGADFNAEGNLEAIYVTDSDDRASIGMKKYYVGRNASGHVAISAKKIEGENLGAQVLGLFTLSSGKEIWQKLSLEHHHHHH
B10: PRT-478 (protein)
chain: MITSVWTKGVTPPTDFIYGEDVLHAPYKAGQGWYDITKAFDGGDDLLCGAATAGNMLHWWFDQNKEQIENYLKKHPEKQKINFNGEQMFDVKEAIDTKDSQTNSELFNYFKEKAFPYLSTKHLGVFPDHVIDMFINGYRLSLTNHGPTPVKRQEKDPRGGIFDAVFGRGDQTKLLTNRHDFKEKTLNEISQLIKQELTEGKALGISHTYANVRINHVINLWGADFDAEGNLEAIYVTDSDSNASIGMKKYFVGVNSNGKVAISAKEIEEDNIGAQVLGLFTLSTGQKIWNKTNLEHHHHHH
B11: PRT-618 (protein)
chain: MQITSVWTKGVIPLTPEQFRYNNEDVIHAPYLPHQGWYDITKAFDGGDNLLCGAATAGNMLHWWFDQNKTEIEAYLSKYPEKQKIIFNNQELFDLRAAINTKDSQTNSQLFNYFRDKAFPNLSARQLGVMPDLVLDMFINGYYLNVFKTQSTDVNRPYQDRDKRGGIFDHVFGRGDQTTLLTARHDLKNGGLNDISTIIKQELQSGRALALSHTYANVSISHVINLWGADFNAEGNLEAIYVTDSDANSSIGMKKYYVGINAHGHVAISAKKIEGENIGAQVLGLFTLSSGKEIWQKLSLEHHHHHH
B12: PRT-513 (protein)
chain: MITSVWTKGVTPPAKFTQGEDVFHAPYVANQGWYDITKTFNGKDDLLCGAATAGNMLHWWFDQNKEEIEAYLKKHPEKQKIMFGDQELLDVRKVINTKDSQTNSALFNYFKDKAFPNLSARRLGVMPDLVLDMFINGYYLNVYKTQTTDVNRTYQTKDRRGGIFDAVFTRGDQSKLLTERHDLKNKTLKEISDLIKQELTEGKALGLSHTYANVRINHVINLWGADFDSNGNLEAIYVTDSDSNASIGMKKYFVGVNSAGKVAISAKEIKEDNIGAQVLGLFTLSTGQDIWNQTNLEHHHHHH
B13: PRT-508 (protein)
chain: MITSVWTKGVTPPTDFIKGEDVFHAPYKAGQGWYDITKTFNGKDDLLCGAATAGNMLHWWFDQNKEEIEAYLKKHPEKQKIMFGDQELLDVRKVINTKDSQTNSALFNYFKDKAFPNLSARRLGVMPDLVLDMFINGYYLNVYKTQTTDVNRTYQTKDRRGGIFDAVFTRGDQSKLLTERHDLKNKTLKEISDLIKQELTEGKALGLSHTYANVRINHVINLWGADFDSNGNLEAIYVTDSDSNASIGMKKYFVGVNSAGKVAISAKEIKEDNIGAQVLGLFTLSTGQDIWNQTNLEHHHHHH

The target in this data set is pooled human IgG (human IgG1,2,3 and 4).
In the case of B1, the Enzyme Activity Endpoint Assay: Fab′2 was determined as 0 ng/µL, the Enzyme Activity Endpoint Assay: Fc amounted to 0 ng/µL, the Enzyme Activity Endpoint Assay: IgG stood at 2090 ng/µL and the Enzyme Activity Endpoint Assay: scIgG was determined as 0 ng/µL.
B2 gave an Enzyme Activity Endpoint Assay: Fab′2 of 1210 ng/µL, an Enzyme Activity Endpoint Assay: Fc of 489 ng/µL, an Enzyme Activity Endpoint Assay: IgG of 0 ng/µL and an Enzyme Activity Endpoint Assay: scIgG of 0 ng/µL.
Regarding B3, the Enzyme Activity Endpoint Assay: Fab′2 was found to be 190 ng/µL, the Enzyme Activity Endpoint Assay: Fc amounted to 192 ng/µL, the Enzyme Activity Endpoint Assay: IgG worked out at 0 ng/µL and the Enzyme Activity Endpoint Assay: scIgG was 0 ng/µL.
Turning to B4, the Enzyme Activity Endpoint Assay: Fab′2 was determined as 0 ng/µL, the Enzyme Activity Endpoint Assay: Fc is 0 ng/µL, the Enzyme Activity Endpoint Assay: IgG came out at 0 ng/µL and the Enzyme Activity Endpoint Assay: scIgG was 0 ng/µL.
Turning to B5, the Enzyme Activity Endpoint Assay: Fab′2 worked out at 217 ng/µL, the Enzyme Activity Endpoint Assay: Fc came to 317 ng/µL, the Enzyme Activity Endpoint Assay: IgG came out at 94 ng/µL and the Enzyme Activity Endpoint Assay: scIgG is 653 ng/µL.
Consider B6, for which the Enzyme Activity Endpoint Assay: Fab′2 is 404 ng/µL, the Enzyme Activity Endpoint Assay: Fc amounted to 362 ng/µL, the Enzyme Activity Endpoint Assay: IgG amounted to 161 ng/µL and the Enzyme Activity Endpoint Assay: scIgG stood at 303 ng/µL.
The like results for B7 were, in that order, 0 ng/µL, 0 ng/µL, 2150 ng/µL and 0 ng/µL.
B8: the Enzyme Activity Endpoint Assay: Fab′2 turned out to be 49 ng/µL, the Enzyme Activity Endpoint Assay: Fc came out at 108 ng/µL, the Enzyme Activity Endpoint Assay: IgG worked out at 26 ng/µL and the Enzyme Activity Endpoint Assay: scIgG turned out to be 64 ng/µL.
The corresponding values for B9 are 0 ng/µL, 174 ng/µL, 594 ng/µL and 798 ng/µL.
B10 yielded an Enzyme Activity Endpoint Assay: Fab′2 of 509 ng/µL, an Enzyme Activity Endpoint Assay: Fc of 453 ng/µL, an Enzyme Activity Endpoint Assay: IgG of 216 ng/µL and an Enzyme Activity Endpoint Assay: scIgG of 362 ng/µL.
B11 showed an Enzyme Activity Endpoint Assay: Fab′2 of 976 ng/µL, an Enzyme Activity Endpoint Assay: Fc of 419 ng/µL, an Enzyme Activity Endpoint Assay: IgG of 0 ng/µL and an Enzyme Activity Endpoint Assay: scIgG of 0 ng/µL.
With B12, the Enzyme Activity Endpoint Assay: Fab′2 came to 397 ng/µL, the Enzyme Activity Endpoint Assay: Fc was 367 ng/µL, the Enzyme Activity Endpoint Assay: IgG was found to be 374 ng/µL and the Enzyme Activity Endpoint Assay: scIgG is 0 ng/µL.
The corresponding values for B13 are 0 ng/µL, 0 ng/µL, 0 ng/µL and 0 ng/µL.
